Measured values taken from publication PMC10120734.

Biological target: free UbcH8 (Ube2L6), GST tag removed (human)
Test: SAXS

Substance: free UbcH8 (Ube2L6), GST tag removed (enzyme)
- stoichiometry N: 2
